B1: Protein E7 (Human papillomavirus type 16), P03129 (parent)
chain: MHGDTPTLHEYMLDLQPETTDLYCYEQLNDSSEEEDEIDGPAGQAEPDRAHYNIVTFCCKCDSTLRLCVQSTHVDIRTLEDLLMGTLGIVCPICSQKP
partner: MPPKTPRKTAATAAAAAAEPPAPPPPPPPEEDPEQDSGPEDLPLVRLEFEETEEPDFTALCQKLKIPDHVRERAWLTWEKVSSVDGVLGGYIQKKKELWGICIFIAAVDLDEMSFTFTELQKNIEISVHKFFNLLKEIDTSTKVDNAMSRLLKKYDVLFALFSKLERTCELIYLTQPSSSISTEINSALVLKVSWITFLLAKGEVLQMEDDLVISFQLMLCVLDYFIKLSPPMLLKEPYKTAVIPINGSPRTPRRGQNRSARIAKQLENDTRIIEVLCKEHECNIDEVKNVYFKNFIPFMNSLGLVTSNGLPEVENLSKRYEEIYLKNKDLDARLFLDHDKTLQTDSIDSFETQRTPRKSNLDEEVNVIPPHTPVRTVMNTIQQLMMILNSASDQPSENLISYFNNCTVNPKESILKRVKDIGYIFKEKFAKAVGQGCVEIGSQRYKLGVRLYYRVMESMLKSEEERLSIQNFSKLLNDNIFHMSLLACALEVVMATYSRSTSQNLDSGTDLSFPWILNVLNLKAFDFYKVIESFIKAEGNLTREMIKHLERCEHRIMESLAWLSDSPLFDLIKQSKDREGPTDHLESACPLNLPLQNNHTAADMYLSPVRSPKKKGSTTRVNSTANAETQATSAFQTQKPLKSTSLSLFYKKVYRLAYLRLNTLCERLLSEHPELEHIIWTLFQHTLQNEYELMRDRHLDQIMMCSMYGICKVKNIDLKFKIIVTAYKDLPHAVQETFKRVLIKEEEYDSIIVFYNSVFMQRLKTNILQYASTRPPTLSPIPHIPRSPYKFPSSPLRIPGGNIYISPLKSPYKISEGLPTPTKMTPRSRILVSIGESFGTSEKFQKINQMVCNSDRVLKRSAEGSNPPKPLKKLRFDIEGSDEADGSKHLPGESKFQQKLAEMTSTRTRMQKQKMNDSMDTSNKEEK
B2: Protein E7 (Human papillomavirus type 16), P03129 (parent)
chain: B1 chain

The record followed here is IntAct's records for PubMed 10228159.

The variants in one assay derive from B1. The note with it: with rb_human RB1, P06400.
On to L67R, for which the “effect of a mutation on the interaction” value is “decreasing interaction”.

The variants in another assay derive from B2. The note with it: with chd4_human CHD4, Q14839.
Sequence of chd4_human CHD4, Q14839 (Q14839 whole entry): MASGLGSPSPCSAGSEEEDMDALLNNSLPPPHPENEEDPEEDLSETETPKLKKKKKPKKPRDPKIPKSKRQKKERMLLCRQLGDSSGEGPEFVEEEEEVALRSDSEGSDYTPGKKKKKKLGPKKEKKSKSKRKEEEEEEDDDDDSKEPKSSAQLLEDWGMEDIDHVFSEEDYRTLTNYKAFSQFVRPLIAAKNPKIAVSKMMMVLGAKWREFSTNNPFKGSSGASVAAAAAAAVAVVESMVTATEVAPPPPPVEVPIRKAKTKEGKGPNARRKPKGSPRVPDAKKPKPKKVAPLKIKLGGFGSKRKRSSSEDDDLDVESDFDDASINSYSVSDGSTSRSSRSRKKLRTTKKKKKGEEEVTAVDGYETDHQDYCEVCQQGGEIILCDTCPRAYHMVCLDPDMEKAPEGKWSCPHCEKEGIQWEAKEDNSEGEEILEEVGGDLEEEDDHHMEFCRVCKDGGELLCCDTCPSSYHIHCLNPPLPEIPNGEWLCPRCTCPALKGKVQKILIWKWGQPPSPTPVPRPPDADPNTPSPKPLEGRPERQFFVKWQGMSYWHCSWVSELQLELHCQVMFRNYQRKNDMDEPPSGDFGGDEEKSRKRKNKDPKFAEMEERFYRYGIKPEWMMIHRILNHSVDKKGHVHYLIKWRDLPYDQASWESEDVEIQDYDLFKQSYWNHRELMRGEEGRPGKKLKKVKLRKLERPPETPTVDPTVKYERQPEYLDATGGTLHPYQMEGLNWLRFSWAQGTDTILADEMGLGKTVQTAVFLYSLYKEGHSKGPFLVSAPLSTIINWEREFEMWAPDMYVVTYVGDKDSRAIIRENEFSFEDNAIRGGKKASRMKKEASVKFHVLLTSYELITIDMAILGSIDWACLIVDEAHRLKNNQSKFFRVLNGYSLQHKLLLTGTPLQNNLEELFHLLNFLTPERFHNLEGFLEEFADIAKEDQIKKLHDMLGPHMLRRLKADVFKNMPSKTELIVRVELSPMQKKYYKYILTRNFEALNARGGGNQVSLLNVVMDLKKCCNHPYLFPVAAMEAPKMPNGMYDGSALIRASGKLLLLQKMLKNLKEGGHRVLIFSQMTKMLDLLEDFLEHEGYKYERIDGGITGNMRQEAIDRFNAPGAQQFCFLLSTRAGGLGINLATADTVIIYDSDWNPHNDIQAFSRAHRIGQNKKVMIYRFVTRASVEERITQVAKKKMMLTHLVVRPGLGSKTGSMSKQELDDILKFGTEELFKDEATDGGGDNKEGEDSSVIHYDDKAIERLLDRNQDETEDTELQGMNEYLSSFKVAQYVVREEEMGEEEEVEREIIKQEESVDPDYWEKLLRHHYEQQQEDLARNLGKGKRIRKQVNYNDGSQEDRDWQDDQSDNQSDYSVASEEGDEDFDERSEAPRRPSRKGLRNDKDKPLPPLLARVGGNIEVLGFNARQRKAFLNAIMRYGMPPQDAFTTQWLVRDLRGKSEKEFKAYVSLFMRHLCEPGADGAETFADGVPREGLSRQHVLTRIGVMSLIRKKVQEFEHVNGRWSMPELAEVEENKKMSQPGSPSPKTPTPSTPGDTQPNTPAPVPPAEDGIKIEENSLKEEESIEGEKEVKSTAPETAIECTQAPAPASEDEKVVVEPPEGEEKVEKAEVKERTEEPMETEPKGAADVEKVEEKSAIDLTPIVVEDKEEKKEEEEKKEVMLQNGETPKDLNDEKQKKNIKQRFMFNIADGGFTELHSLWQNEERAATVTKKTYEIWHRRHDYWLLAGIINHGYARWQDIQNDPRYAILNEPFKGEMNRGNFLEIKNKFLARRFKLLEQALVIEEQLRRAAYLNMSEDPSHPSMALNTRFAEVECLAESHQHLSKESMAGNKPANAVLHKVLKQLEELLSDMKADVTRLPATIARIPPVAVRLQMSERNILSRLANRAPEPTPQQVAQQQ
L67R: the “effect of a mutation on the interaction” value is “decreasing interaction”.
